Experimental data taken from patent US20180280412A1.

Molecular target: Ub-AMC substrate

DUBs activity on Ub-AMC substrate: 3 fold
Substance: purified 26S proteasome (enzyme)
